In US20190134153A1, “IMMUNOMODULATORY EFFECT OF INHALED KINASE INHIBITOR PEPTIDES IN LUNG” (MOERAE MATRIX, INC., priority 2017, published 2019):

Experiments:
Test in all cases: Kinase Profiling Assay
Type in all cases: biochemical
Conditions in all cases: 100 μM
[1] = molecular target: ALK(h) (Homo sapiens, UniProt Q9UM73)
[2] = molecular target: Arg(h) (Homo sapiens, UniProt P42684)
[3] = molecular target: CaMKIIβ(h) (Homo sapiens, UniProt Q13554)
[4] = molecular target: CDK5/p35(h) (Homo sapiens, UniProt Q00535)
[5] = molecular target: T1, DMPK(h) (Homo sapiens, UniProt Q09013)
T1 sequence (Q09013 1-629): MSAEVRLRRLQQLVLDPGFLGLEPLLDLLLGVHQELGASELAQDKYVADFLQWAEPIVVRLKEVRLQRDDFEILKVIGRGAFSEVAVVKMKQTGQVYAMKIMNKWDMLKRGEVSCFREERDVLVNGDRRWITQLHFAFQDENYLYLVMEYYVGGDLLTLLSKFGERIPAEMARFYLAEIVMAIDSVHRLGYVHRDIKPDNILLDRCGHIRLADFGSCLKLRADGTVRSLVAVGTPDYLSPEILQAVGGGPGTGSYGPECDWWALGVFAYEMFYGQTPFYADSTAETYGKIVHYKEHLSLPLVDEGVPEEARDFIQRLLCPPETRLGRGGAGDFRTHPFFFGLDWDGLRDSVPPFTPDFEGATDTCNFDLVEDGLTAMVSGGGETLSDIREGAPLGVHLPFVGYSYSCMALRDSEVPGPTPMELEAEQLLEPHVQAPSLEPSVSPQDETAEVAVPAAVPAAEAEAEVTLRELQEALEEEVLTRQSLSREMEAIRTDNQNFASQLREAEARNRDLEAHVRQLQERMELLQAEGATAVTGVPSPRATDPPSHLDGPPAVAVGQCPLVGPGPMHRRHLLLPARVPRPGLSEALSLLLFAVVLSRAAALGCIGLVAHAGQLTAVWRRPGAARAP

[6] = molecular target: T2, DRAK1(h) (Homo sapiens, UniProt Q9UEE5)
T2 sequence (Q9UEE5 1-414): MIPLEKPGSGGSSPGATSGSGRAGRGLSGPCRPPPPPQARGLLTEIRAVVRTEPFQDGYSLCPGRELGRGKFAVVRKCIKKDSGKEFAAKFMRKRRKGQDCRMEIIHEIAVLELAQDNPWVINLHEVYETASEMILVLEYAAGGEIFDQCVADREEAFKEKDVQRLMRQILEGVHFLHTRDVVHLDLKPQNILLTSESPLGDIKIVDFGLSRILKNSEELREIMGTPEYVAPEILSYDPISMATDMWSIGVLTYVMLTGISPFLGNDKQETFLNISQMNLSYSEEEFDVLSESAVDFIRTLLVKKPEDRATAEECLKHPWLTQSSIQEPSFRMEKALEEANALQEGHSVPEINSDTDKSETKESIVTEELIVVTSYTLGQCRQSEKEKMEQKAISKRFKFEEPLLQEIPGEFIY

[7] = molecular target: EGFR(L861Q)(h) (Homo sapiens, UniProt P00533, L861Q)
[8] = molecular target: T3, GRK7(h) (Homo sapiens, UniProt Q8WTQ7)
T3 sequence (Q8WTQ7 1-553): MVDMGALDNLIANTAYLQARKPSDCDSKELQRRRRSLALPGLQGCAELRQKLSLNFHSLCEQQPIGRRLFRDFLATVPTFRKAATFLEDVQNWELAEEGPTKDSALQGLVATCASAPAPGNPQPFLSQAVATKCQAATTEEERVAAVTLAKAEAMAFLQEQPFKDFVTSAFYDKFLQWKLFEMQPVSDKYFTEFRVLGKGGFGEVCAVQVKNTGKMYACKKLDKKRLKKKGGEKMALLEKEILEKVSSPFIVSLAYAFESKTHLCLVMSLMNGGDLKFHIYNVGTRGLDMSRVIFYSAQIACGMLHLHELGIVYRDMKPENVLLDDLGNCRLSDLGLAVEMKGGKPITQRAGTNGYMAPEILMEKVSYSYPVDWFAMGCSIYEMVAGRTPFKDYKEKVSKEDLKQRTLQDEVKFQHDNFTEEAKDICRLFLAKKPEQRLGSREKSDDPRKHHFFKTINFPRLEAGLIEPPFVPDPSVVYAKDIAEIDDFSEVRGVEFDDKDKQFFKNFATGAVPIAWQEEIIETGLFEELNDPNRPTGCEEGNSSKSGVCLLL

[9] = molecular target: GSK3α(h) (Homo sapiens, UniProt P49840)
[10] = molecular target: Lyn(h) (Homo sapiens, UniProt P07948)
[11] = molecular target: MEK1(h) (Homo sapiens, UniProt Q02750)
[12] = molecular target: T4, MST1(h) (Homo sapiens, UniProt Q13043)
T4 sequence (Q13043 1-487): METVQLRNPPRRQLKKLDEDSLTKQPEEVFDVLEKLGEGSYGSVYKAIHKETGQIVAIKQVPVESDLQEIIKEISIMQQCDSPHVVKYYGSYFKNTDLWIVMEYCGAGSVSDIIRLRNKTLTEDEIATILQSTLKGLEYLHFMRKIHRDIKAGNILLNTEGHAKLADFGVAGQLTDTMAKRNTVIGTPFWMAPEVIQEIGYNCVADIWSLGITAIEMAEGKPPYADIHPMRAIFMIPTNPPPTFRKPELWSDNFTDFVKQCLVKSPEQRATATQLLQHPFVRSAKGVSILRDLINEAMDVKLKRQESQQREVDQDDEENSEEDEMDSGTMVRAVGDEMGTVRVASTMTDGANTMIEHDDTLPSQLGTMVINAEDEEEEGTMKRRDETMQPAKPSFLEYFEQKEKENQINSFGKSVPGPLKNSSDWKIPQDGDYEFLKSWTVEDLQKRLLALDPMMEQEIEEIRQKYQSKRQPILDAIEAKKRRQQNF

[13] = molecular target: PDGFRα(h) (Homo sapiens, UniProt P16234)
[14] = molecular target: ROCK-I(h) (Homo sapiens, UniProt Q13464)
[15] = molecular target: Tie2(h) (Homo sapiens, UniProt Q02763)
Sequence of Tie2(h) (Q02763 23-1124): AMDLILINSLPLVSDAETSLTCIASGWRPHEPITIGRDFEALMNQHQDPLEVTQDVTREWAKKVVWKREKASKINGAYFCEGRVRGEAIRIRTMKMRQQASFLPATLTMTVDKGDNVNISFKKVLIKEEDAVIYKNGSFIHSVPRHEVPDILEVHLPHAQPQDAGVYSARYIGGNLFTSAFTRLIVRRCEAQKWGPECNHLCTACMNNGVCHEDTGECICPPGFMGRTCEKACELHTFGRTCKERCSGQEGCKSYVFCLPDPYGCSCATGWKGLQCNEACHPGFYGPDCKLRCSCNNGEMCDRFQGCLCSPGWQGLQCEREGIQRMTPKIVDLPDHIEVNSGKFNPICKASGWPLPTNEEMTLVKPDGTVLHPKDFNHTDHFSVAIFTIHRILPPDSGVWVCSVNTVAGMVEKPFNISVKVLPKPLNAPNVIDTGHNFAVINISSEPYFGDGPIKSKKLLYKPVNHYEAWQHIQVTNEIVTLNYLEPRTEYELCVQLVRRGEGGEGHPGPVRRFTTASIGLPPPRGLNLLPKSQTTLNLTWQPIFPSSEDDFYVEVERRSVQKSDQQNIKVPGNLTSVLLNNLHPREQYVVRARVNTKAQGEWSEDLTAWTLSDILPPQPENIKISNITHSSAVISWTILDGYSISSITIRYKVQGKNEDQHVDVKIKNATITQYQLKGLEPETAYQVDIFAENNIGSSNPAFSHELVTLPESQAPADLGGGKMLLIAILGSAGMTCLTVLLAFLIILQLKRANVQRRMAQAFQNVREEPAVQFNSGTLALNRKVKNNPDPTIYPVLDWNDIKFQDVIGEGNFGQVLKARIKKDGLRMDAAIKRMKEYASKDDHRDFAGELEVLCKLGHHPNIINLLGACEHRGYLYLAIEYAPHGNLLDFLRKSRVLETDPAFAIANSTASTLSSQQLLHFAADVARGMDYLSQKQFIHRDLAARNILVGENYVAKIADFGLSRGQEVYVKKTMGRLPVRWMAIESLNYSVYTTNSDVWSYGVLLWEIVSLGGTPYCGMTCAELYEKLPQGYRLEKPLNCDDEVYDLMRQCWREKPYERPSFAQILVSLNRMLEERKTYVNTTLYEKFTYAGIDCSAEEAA

Sequence of GSK3α(h) (P49840 whole entry): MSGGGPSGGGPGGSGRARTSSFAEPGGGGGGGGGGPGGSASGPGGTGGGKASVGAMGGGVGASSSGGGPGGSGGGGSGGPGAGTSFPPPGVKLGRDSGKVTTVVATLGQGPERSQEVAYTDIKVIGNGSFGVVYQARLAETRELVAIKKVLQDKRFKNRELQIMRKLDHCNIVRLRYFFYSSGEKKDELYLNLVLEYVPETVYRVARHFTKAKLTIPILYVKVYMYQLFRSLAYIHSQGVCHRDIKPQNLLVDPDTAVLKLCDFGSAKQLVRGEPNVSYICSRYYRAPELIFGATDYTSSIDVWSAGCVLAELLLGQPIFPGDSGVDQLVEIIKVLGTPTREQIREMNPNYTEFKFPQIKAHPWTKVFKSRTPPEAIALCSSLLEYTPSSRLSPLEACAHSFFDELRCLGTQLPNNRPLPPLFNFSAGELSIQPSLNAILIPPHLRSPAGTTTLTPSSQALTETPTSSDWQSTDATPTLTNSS
Sequence of ALK(h) (Q9UM73 19-1620): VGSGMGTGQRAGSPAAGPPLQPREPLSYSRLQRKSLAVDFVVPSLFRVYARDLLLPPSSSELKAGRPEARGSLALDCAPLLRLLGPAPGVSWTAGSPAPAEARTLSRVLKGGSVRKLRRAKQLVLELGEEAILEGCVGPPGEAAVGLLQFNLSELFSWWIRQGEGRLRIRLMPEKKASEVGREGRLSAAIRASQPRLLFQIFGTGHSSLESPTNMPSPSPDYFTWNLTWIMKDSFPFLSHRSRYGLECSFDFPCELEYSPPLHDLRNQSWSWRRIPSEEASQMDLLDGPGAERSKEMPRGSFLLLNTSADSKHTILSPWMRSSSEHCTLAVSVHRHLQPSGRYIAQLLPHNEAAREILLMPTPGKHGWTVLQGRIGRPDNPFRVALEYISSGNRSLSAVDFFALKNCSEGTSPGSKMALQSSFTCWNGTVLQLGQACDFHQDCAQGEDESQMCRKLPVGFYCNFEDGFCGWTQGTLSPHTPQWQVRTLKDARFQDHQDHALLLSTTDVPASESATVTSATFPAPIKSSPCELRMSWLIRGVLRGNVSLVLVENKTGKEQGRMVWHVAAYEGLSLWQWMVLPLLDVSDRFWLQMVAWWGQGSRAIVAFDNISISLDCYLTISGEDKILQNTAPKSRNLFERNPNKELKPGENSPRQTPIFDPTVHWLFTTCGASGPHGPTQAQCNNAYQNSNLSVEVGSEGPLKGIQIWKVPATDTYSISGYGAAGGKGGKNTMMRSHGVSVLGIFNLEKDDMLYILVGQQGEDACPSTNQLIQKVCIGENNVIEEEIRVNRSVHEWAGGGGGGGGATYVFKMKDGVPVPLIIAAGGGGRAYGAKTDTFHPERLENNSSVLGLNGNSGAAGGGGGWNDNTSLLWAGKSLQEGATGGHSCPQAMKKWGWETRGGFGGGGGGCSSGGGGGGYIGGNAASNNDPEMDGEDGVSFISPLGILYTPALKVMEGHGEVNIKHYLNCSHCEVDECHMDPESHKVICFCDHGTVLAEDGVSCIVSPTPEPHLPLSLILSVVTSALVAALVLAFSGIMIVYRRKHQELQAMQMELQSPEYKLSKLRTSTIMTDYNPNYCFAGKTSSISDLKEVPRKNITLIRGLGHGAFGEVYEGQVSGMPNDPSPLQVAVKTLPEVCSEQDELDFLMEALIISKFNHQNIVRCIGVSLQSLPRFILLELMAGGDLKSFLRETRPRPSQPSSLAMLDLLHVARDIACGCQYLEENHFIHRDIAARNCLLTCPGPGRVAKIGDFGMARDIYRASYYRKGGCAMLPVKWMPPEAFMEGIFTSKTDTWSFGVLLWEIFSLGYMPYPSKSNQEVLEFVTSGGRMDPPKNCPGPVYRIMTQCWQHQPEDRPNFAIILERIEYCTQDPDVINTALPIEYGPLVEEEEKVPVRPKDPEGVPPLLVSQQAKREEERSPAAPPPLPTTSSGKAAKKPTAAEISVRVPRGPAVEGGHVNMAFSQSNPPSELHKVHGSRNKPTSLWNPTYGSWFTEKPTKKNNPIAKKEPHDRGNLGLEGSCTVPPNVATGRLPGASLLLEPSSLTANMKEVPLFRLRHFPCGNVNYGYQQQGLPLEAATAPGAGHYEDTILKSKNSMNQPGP
Sequence of Arg(h) (P42684 whole entry): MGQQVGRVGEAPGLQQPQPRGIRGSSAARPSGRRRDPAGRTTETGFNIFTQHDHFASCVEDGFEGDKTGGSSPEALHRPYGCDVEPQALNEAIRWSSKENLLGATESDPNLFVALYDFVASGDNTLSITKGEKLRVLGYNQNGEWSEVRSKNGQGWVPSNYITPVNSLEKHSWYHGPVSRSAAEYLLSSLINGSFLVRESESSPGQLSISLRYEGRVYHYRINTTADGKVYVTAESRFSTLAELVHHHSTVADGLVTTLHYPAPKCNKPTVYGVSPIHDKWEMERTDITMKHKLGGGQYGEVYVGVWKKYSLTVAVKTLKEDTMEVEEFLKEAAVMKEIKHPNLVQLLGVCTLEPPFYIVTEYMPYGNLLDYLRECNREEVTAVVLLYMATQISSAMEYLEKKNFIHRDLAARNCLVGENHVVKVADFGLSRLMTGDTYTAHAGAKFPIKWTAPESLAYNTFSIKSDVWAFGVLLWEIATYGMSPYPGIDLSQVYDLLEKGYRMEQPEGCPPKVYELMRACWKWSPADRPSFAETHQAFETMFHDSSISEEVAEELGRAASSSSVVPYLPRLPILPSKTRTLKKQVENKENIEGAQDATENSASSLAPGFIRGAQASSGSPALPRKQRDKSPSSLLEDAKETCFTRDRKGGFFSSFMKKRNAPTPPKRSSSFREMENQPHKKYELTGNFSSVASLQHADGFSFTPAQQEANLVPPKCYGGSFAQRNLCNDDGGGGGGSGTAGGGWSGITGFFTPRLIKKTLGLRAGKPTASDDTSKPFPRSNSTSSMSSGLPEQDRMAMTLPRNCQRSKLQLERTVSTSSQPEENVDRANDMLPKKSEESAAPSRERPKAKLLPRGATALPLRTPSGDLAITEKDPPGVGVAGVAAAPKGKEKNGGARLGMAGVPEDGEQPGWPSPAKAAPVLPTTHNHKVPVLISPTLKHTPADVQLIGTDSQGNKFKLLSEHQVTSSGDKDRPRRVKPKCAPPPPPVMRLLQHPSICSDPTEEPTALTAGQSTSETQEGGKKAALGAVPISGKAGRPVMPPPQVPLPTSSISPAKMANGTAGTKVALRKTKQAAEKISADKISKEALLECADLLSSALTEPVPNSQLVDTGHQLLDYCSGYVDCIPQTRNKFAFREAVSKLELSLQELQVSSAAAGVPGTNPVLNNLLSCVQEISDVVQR
Sequence of CaMKIIβ(h) (Q13554 whole entry): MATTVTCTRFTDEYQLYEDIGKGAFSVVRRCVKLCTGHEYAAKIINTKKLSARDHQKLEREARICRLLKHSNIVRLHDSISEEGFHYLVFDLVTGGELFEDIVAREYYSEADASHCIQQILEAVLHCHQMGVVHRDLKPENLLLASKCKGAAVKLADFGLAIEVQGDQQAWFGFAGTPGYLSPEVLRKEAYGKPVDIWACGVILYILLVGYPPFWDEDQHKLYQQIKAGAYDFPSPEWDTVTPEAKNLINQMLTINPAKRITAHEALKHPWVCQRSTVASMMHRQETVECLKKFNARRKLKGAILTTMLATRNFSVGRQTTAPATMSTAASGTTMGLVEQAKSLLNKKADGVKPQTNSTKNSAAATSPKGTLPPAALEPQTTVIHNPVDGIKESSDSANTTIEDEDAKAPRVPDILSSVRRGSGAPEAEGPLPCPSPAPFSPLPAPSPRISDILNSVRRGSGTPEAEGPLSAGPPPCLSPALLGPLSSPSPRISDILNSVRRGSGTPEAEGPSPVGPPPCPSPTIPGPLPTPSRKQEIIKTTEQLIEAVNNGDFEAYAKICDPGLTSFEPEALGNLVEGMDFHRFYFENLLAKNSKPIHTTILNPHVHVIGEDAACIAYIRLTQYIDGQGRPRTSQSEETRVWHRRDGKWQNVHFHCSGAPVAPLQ

Sequence	% activity [1]	% activity [2]	% activity [3]	% activity [4]	% activity [5]	% activity [6]	% activity [7]	% activity [8]	% activity [9]	% activity [10]	% activity [11]	% activity [12]	% activity [13]	% activity [14]	% activity [15]
HRRIKAWLKKIKALARQLGVAA [MMI-0500]	12%	22%	3%	59%	12%	8%	15%	93%	175%	31%	21%	3%	40%	17%	22%
YARAAARQARAKALNRQLGVA [MMI-0200]	95%	82%	53%	92%	66%	34%	74%	124%		98%		72%	108%		53%
KAFAKLAARLYRKALARQLGVAA [MMI-0400]	16%	84%	11%	76%	54%	14%	22%	100%	164%	3%	77%	6%	40%	73%	21%
FAKLAARLYRKALARQLGVAA [MMI-0300]	19%	72%	2%	79%	59%	14%	25%	122%	157%	69%	77%	14%	65%	79%	26%
